Measurements taken from paper doi:10.1101/2025.06.12.659276.

Target: mGq fused to GFP10
Experiment: BRET (mGq-GFP recruitment to Rluc-fused receptor)
Conditions: n = 4, parent: est. 0.30, read off a plot

## US28-Rluc (from UniProt P69332) US28-PDCT: S>A at 12 sites and T>V at 2 sites after helix 8, in the printed stretch QRLF[S>A]RDV[S>A]WYH[S>A]M[S>A]F[S>A]RR[S>A][S>A]P[S>A]RRE[T>V][S>A][S>A]D[T>V]L[S>A]DEVCRV[S>A]QIIP; residue numbers not printed
Parental HEK-293 cells
  response: 0.31
β-arrestin 1/2-deficient (Δβarr1/2) HEK-293 cells
  response: 0.26
